Results reported in patent publication US20190187132A1.
Like-named read-outs stand apart in the source and are kept apart here.

B1: Anti-[TRISP][18H1] (antibody, V domains shown)
VH: QVQLKESGPGLVQPSQTLSLTCTVSGLSLTSNSVGWIRQPPGKGLEWMGIIWSNGGTDYNSAIKSRLSISRDTSKSQVFLKMHSLQTEDTAMYFCARGPYYGSYRLGYFDYWGQGVMVTVSS
VL: DVVMTQSPSSLAVSAGETVTLNCQSSQSLLYSGTQNNYLAWYQQKPGQSPKLLISWASTRQSGVPLRFIGSGSGTDFTLTITSVQAEDLAIYYCQQFYDTPLTFGSGTKLEIK
B2: Anti-[TRISP][C9] (antibody, V domains shown)
VH: AVTLDESGGGLQTPGGALSLVCKASGFSISSYSMQWVRQAPGKGLEWVAGIYYDGNTWYAPAVKGRATISRDNGQSTVRLRLNNLRAEDTATYFCAKYAGGYSIDAWGHGTEVIVSS
VL: ALTQPSSVSANPGETVKITCSGSSGSYGWYQQKSPGSGPVTVIYYNDKRPSDIPSRFSGSASGSTATLTITGVQAEDEAVYFCGGYDSSTYVGIFGAGTTLTVL

Legend:
[1] = molecular target: Trichinella spiralis lysate
[2] = molecular target: Trichinella spiralis lysate; remark: listed apart in the source
[3] = molecular target: Trichinella spiralis E/S antigen

| Binder | detection limit [1] [µg/mL] | detection limit [2] [ng/mL] | detection limit [3] [ng/mL] |
| --- | --- | --- | --- |
| B1 | 10 | 1 | – |
| B2 | – | – | 6 |
